Key:
[1] = target: T1, free IgE in human serum (healthy volunteers, in-house donors) (human, UniProt P01854-1 1-428); assay: serum free IgE depletion ELISA; DIN 0748
T1 construct: Kept apart from the bought myeloma IgE because it is native serum IgE of single donors; also called serum IgE
Protocol: (§1) The next day ELISA plates were washed 1× with 300 μL/well wash buffer (0.05% Tween-20, Sigma, Cat. No. P7949/TBS) then blocked with 150 μL/well 1% BSA (Sigma, Cat. No. A7030) in TBS for 1 hour at room temperature.

[2] = target: T2, cynomolgus monkey IgE (in cynomolgus serum, Harlan Sera-Lab Ltd) (cynomolgus monkey); assay: capture ELISA, Test 1, Cyno 7
T2 construct: Serum was the source of IgE; eight serum samples; also called cynomolgus IgE; Cyno 1 to Cyno 8 serum samples
Protocol: (§2) Wells were washed once with 150 μL/well wash buffer (0.05% Tween-20, Sigma, Cat. No. P7949/TBS) then blocked with 150 μL/well 1% BSA (Sigma, Cat. No. A7030) in TBS for 2 hours at room temperature. Wells were washed twice with 150 μL wash buffer. 50 μL human (in-house donors) or cynomolgus serum (Harlan Sera-Lab Ltd, Loughborough) was added from neat to at least 1:16 dilution in 1% BSA/0.05% Tween-20/TBS diluent buffer. […] Wells were incubated for 2 hours at 25° C. before washing (3×150 μL wash buffer). […] Wells were incubated for 1 hour at 25° C. then washed (3×150 μL wash buffer). Streptavidin-HRP (Amersham Bioscience, Cat. No. RPN 1231) diluted 1:1000 in diluent buffer was added to all wells and incubated for 45 minutes at room temperature. Wells were washed (3×150 […] wash buffer). 50 μL OPD (Dako, Cat. No. S2045) was added to all wells and the color allowed to develop for 10 minutes before stopping the reaction with 50 μl 0.6M H₂SO₄ and the absorbance measured at 490 nm.

[3] = target: T1, free IgE in human serum (healthy …); assay: serum free IgE depletion ELISA; DIN 0382
Protocol: as §1

[4] = target: T1, free IgE in human serum (healthy …); assay: serum free IgE depletion ELISA; DIN 0284
Protocol: as §1

[5] = target: T1, free IgE in human serum (healthy …); assay: serum free IgE depletion ELISA; DIN 0011 experiment 1
Protocol: as §1

[6] = target: T1, free IgE in human serum (healthy …); assay: serum free IgE depletion ELISA; DIN 0632 experiment 1
Protocol: as §1

[7] = target: T1, free IgE in human serum (healthy …); assay: serum free IgE depletion ELISA; DIN 0451 experiment 1
Protocol: as §1

[8] = target: T1, free IgE in human serum (healthy …); assay: capture ELISA, Test 1, human serum
Protocol: as §2

[9] = target: T2, cynomolgus monkey IgE (in cynomolgus …); assay: capture ELISA, Test 1, Cyno 1
Protocol: as §2

[10] = target: T2, cynomolgus monkey IgE (in cynomolgus …); assay: capture ELISA, Test 1, Cyno 4
Protocol: as §2

[11] = target: T2, cynomolgus monkey IgE (in cynomolgus …); assay: capture ELISA, Test 1, Cyno 2
Protocol: as §2

[12] = target: T2, cynomolgus monkey IgE (in cynomolgus …); assay: capture ELISA, Test 1, Cyno 5
Protocol: as §2

[13] = target: T1, free IgE in human serum (healthy …); assay: serum free IgE depletion ELISA; DIN 0321 experiment 1
Protocol: as §1

T1 sequence (P01854 other isoform, or with tags, fused parts or gaps): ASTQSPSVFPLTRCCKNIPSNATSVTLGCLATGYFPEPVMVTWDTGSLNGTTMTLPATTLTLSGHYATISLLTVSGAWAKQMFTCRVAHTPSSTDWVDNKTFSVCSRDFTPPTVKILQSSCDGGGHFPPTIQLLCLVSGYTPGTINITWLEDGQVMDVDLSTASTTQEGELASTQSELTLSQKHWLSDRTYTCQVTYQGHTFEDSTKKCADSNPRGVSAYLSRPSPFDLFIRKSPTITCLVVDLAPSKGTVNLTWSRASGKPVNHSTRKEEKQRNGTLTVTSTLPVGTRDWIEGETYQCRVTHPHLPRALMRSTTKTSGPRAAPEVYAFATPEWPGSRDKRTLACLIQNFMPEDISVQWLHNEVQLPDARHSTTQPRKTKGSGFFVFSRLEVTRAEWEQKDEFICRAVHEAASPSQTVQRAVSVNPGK

B1: 5.948.1 (recombinant) (antibody, human IgG2, kappa, V domains shown)
VH: QVQLVQSGAEVKKPGASVKVSCKASGYTFTSYDINWVRQATGQGLEWMGWMDPNSGNTGYAQKFQGRVTMTRNTSISTAYMELSSLRSEDTAVYYCARGHYDSDGYYSFSGMDVWGQGTTVTVSS
VL: not shown
notes: Human IgG2 kappa; leader omitted; Two batches were tested in some assays; also called recombinant 5.948.1; 5.948.1 - Batch 1 (762.8 µg/mL)
[1]
  IC25 ng/mL: 25.1 µg/mL
[2]
  IgE concentration detected: 8 ng/mL
[3]
  IC25 ng/mL: 25 µg/mL
[4]
  IC25 ng/mL: 2.45 µg/mL
[5]
  IC25 ng/mL: 3.3 µg/mL
[6]
  IC25 ng/mL: 8.91 µg/mL
[7]
  IC25 ng/mL: 11.6 µg/mL
[8]
  IgE concentration detected: 468 ng/mL
[9]
  IgE concentration detected: 481 ng/mL
[10]
  IgE concentration detected: 39 ng/mL
[11]
  IgE concentration detected: 464 ng/mL
[12]
  IgE concentration detected: 837 ng/mL
[13]
  IC25 ng/mL: 1.34 µg/mL

— patent US20090117124A1 (Pfizer, published 2009)
